From article PMC9584350

Target: Arf6 (co-precipitated with FLAG–AMPKα2 from cells), P62330
Assay: co-immunoprecipitation (IP anti-FLAG, immunoblot for Arf6), band quantification
Conditions: chain shown with the change; HEK 293T cells transfected with FLAG-AMPKα2 and Arf6-myc; n=4; empty (no FLAG-AMPKα2) control = 1; parent: est. 6.0; read off a plot

Chain of Arf6 (co-precipitated with FLAG–AMPKα2 from cells), P62330 (P62330 whole entry): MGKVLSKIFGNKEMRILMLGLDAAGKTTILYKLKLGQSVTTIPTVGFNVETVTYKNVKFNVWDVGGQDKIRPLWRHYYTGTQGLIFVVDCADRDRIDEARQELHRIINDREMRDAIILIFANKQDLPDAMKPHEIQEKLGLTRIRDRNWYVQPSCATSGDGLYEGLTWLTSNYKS

| response | Binder |
| --- | --- |
| 1.4 | FLAG–AMPKα2-WT, P54646 W402A; H403A; L404A; G405A; I406A (protein) MAEKQKHDGRVKIGHYVLGDTLGVGTFGKVKIGEHQLTGHKVAVKILNRQKIRSLDVVGKIKREIQNLKLFRHPHIIKLYQVISTPTDFFMVMEYVSGGELFDYICKHGRVEEMEARRLFQQILSAVDYCHRHMVVHRDLKPENVLLDAHMNAKIADFGLSNMMSDGEFLRTSCGSPNYAAPEVISGRLYAGPEVDIWSCGVILYALLCGTLPFDDEHVPTLFKKIRGGVFYIPEYLNRSVATLLMHMLQVDPLKRATIKDIREHEWFKQDLPSYLFPEDPSYDANVIDDEAVKEVCEKFECTESEVMNSLYSGDPQDQLAVAYHLIIDNRRIMNQASEFYLASSPPSGSFMDDSAMHIPPGLKPHPERMPPLIADSPKARCPLDALNTTKPKSLAVKKAKAAAAARSQSKPYDIMAEVYRAMKQLDFEWKVVNAYHLRVRRKNPVTGNYVKMSLQLYLVDNRSYLLDFKSIDDEVVEQRSGSSTPQRSCSAAGLHRPRSSFDSTTAESHSLSGSLTGSLTGSTLSSVSPRLGSHTMDFFEMCASLITTLAR |
| 1.3 | FLAG–AMPKα2-WT, P54646 E418A; V419A; Y420A; R421A (protein) MAEKQKHDGRVKIGHYVLGDTLGVGTFGKVKIGEHQLTGHKVAVKILNRQKIRSLDVVGKIKREIQNLKLFRHPHIIKLYQVISTPTDFFMVMEYVSGGELFDYICKHGRVEEMEARRLFQQILSAVDYCHRHMVVHRDLKPENVLLDAHMNAKIADFGLSNMMSDGEFLRTSCGSPNYAAPEVISGRLYAGPEVDIWSCGVILYALLCGTLPFDDEHVPTLFKKIRGGVFYIPEYLNRSVATLLMHMLQVDPLKRATIKDIREHEWFKQDLPSYLFPEDPSYDANVIDDEAVKEVCEKFECTESEVMNSLYSGDPQDQLAVAYHLIIDNRRIMNQASEFYLASSPPSGSFMDDSAMHIPPGLKPHPERMPPLIADSPKARCPLDALNTTKPKSLAVKKAKWHLGIRSQSKPYDIMAAAAAAMKQLDFEWKVVNAYHLRVRRKNPVTGNYVKMSLQLYLVDNRSYLLDFKSIDDEVVEQRSGSSTPQRSCSAAGLHRPRSSFDSTTAESHSLSGSLTGSLTGSTLSSVSPRLGSHTMDFFEMCASLITTLAR |
